Consider 2 substances from patent publication US6706762.

“And” between values parts separate entries of the source, which are not always exact repeats. Equal entries are not always repeated.

For this experiment, the target named is GAL-C-SMRT (yeast) (UniProt P04386). Put plainly: cell-based or functional assay.

Turning to “VP-PML-RARα (from UniProt P29590 1-552; P10276 61-462)”, the fold lower sensitivity to ATRA than the SMRT/RARα interaction, mammalian two-hybrid is 100 fold and 200 fold.

As to VP16-PLZF (from UniProt Q05516 1-673), the UAS reporter expression, mammalian two-hybrid was 25 fold.
